The text below walks through data of patent US20210130452A1.

The target in test [1] is T1, marmoset IL-17F (marmoset) (UniProt A6N6I9).
T1 sequence (looked up): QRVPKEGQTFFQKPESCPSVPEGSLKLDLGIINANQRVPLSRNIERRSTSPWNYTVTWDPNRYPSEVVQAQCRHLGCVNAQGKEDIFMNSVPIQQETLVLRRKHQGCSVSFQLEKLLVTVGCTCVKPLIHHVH
Put plainly: ELISA, coated IL-17F. For orientation: In an ELISA, binding on a coated surface is turned into a signal by an enzyme label.

For test [2], the target named is human serum albumin (human) (UniProt P02768). In words: SPR (Biacore), HSA. For orientation: In SPR one partner is held on a chip, and binding of the other changes the refractive index at the surface.
Test [3] addresses human IL-17A (human) (UniProt Q16552). In words: AlphaScreen IL17A-RA. On the technique in general: Bead proximity is the source of the signal in Alpha formats.
The target is the same in test [4]. In words: AlphaScreen IL17A-RC.
Test [5] deals with T2, human IL-17F (human) (UniProt Q96PD4).
T2 sequence: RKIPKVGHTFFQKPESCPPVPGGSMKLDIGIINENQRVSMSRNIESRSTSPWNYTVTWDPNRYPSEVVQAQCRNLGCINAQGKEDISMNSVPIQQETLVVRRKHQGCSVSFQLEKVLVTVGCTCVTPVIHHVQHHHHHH
Put plainly: AlphaScreen IL17F-RA.

For test [6], the target named is T2, human IL-17F (human). In words: AlphaScreen IL17F-RC.
Test [7] concerns the target human IL-17A/F heterodimer (human) (UniProt Q16552). Put plainly: AlphaScreen IL17A/F-RA.
Test [8] shares this target. Put plainly: AlphaScreen IL17A/F-RC.
Test [9] deals with human IL-17A (human) (UniProt Q16552). Put plainly: cell-based or functional assay.
Chain of human IL-17A (human) (Q16552 other isoform, or with tags, fused parts or gaps): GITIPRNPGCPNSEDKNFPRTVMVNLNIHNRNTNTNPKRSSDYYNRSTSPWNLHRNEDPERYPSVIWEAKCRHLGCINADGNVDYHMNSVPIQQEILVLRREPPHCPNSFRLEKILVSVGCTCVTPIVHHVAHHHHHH
Test [10] deals with human IL-17A/F heterodimer (human) (UniProt Q16552). In words: cell-based or functional assay.
Chain of human IL-17A/F heterodimer (human) (Q16552 24-155 limits assumed, one chain of several): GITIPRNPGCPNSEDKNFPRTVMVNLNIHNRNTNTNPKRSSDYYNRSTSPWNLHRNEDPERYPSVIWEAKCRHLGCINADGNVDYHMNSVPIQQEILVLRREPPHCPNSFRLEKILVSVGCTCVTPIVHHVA
The target in test [11] is T2, human IL-17F (human). In words: cell-based or functional assay.
Test [12] concerns the target human IL-17A (human) (UniProt Q16552). In words: AlphaScreen IL17A-RA + HSA.
Test [13] addresses T2, human IL-17F (human). In words: AlphaScreen IL17F-RC + HSA.
Test [14] addresses human IL-17A/F heterodimer (human) (UniProt Q16552). In words: AlphaScreen IL17A/F-RA + HSA.
For test [15], the target named is marmoset IL-17A (marmoset). In words: ELISA, coated IL-17A.
Chain of marmoset IL-17A (marmoset) (chain, as listed by the source limits assumed): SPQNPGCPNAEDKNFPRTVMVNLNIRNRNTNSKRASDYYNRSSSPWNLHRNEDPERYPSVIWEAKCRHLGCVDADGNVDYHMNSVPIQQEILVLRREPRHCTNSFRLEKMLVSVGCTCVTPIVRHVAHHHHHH
Test [16] deals with Cynomolgus monkey IL-17A (Cynomolgus monkey). In words: cell-based or functional assay.
Chain of Cynomolgus monkey IL-17A (Cynomolgus monkey) (chain, as listed by the source): as the sequence (Q16552 24-155 limits assumed, one chain of several) above, with T3A, P8S, N34S, I77V, N78K, P104R counted along it
Test [17] deals with T3, Cynomolgus monkey IL-17F (Cynomolgus monkey) (UniProt G7P4V0).
T3 sequence: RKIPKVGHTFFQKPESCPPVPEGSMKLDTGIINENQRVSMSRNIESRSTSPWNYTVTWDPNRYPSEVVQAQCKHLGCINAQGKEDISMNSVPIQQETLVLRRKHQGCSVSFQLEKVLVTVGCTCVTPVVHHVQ
Put plainly: cell-based or functional assay.

B1: 17C01 (VHH)
VHH: EVQLVESGGRLVQAGGSLRLPCAASGRTFTSYPMGWFRQAPGKEREFVAAISMSGDDAAYADFVRGRFTISRDDARNTVYLHMTSLKPEDTAVYYCAARTSYDGTYDYIDDYSYWGQGTQVTVSS
Regarding B1, the OD in test [1] is 0.0525 OD.

B2: IL17MS0166 (bispecific antibody, part only; not given: linkers and anti-albumin Nanobody, not shown: small tags and cut ends)
chain, part: EVQLVESGGGLVQAGGSLRLSCGAAGGTFSSYATGWFRQAPGKEREFVAVFRWSDSHTAYADSVKGRFTISRDGAKNTLYLQMSSLKPEDTAIYYCTTATRPGEWDYWGQGTQVTVSSEVQLVESGGGLVQAGGSQRLSCTASGTIVNIHVMGWYRQAPGKQRELVALIFSGGSADYADSVKGRFTISRDNAKNTVYLEMNSLKAEDTAVYYCAAEIGYYSGGTYYSSEAHWGQGTQVTVSS
On to B2, for which the koff in [2] amounted to 0.0059 s⁻¹. Moreover, the IC50 in test [3] turned out to be 0.161 nM; in test [4] it was 0.367 nM; in test [5], 1.09 nM; in test [6] it was 0.046 nM; in test [7], 0.128 nM; in [8], 0.051 nM. In addition, the IC50 in test [12] came out at 0.203 nM; in [13], 0.056 nM; in test [14] it was 0.095 nM. Moreover, the Emax, hIL-17A induced IL-6, HT-1080, 100 µM HSA in test [9] came to 98%. In addition, the Emax, hIL-17A induced IL-6, HT-1080, without HSA in test [9] turned out to be 105%. This molecule came in with an IC50, hIL-17A induced IL-6, HT-1080, 100 µM HSA in [9] of 1.95 nM. Further, the IC50, hIL-17A induced IL-6, HT-1080, without HSA in test [9] came to 0.83 nM. The same molecule showed an Emax, hIL-17A/F induced IL-6, HT-1080, 100 µM HSA in [10] of 72%. The IC50, hIL-17A/F induced IL-6, HT-1080, 100 µM HSA in test [10] came out at 1.47 nM. For the same molecule, in test [11], the Emax, hIL-17F induced IL-6, HT-1080, 100 µM HSA was 85%. In test [11], this molecule showed an Emax, hIL-17F induced IL-6, HT-1080, without HSA of 102%. The molecule also showed an IC50, hIL-17F induced IL-6, HT-1080, 100 µM HSA in [11] of 8.5 nM. This molecule also registered an IC50, hIL-17F induced IL-6, HT-1080, without HSA in test [11] of 7.35 nM.

B3: 07B11 (VHH)
VHH: EVQLVESGGGLVQAGGSLRLSCVASGRAFSSYVMGWFRQAPGMEREFVALIRWSDGITGYVDSVKGRFTISRDNAKNTVYLQMNSLKPEDTAVYYCAAAVRPGDYDYWGQGTQVTVSS
In turn, B3 had an OD in [15] of 0.186 OD.

B4: 24G10 (VHH)
VHH: EVQLVESGGGLVQAGGSLRLSCGAAGGTFSSYATGWFRQAPGKEREFVAVFRWSDSHTAYADSVKGRFTISRDGAKNTLYLQMSSLKPEDTAIYYCTTATRPGEWDYWGQGTQVTVSS
In test [15], B4 showed an OD of 0.122 OD.

B5: IL17MS0110 (bispecific antibody, part only; not given: linkers and anti-albumin Nanobody, not shown: small tags and cut ends)
chain, part: EVQLVESGGGLVQAGGSQRLSCTASGTIVNIHVMGWYRQAPGKQRELVALIFSGGSADYADSVKGRFTISRDNAKNTVYLEMNSLKAEDTAVYYCAAEIGYYSGGTYYSSEAHWGQGTQVTVSSEVQLVESGGGLVQAGGSLRLSCAASGRTFSSYVVGWFRQAPGKEREFIGAISGSGDSIYYAVSEKDRFTISRDNGKNTLYLQMSSLKAEDTAVYYCTADQEFGYLRFGRSEYWGQGTQVTVSS
Consider B5, for which the koff in [2] worked out at 0.0061 s⁻¹. For the same molecule, the results for the IC50 in test [3] and in test [6] were 0.045 nM and 0.048 nM, respectively.

B6: SH-Fc-(GS)2-13B03 (Fc fusion, not shown: a dimerising Fc or GST; small tags and cut ends)
chain: EVQLVESGGGSVQAGDSLRLSCAASGRANSINWFGWFRQTPGKEREFVAGIRWSDAYTEYANSVKGRFTISRDNAKNTVDLQMDSLKPEDTAVYYCVLDLSTVRYWGQGTQVTVSS
B6: in [16], the Emax, Cyno IL17A, HT-1080 bioassay stood at 98% and the IC50, Cyno IL17A, HT-1080 bioassay was found to be 0.37 nM. In [17], this molecule gave an Emax, Cyno IL17F, HT-1080 bioassay of 103% and an IC50, Cyno IL17F, HT-1080 bioassay of 5 nM.

B7: SH-Fc-(GS)2-13E02 (Fc fusion, not shown: a dimerising Fc or GST; small tags and cut ends)
chain: EVQLVESGGGLVQAGGSLRLSCAASGRTYDAMGWLRQAPGKEREFVAAISGSGDDTYYADSVKGRFTISKDNAGITMYLQMNSLKPEDTAVYYCATRRGLYYVWDSNDYENWGQGTQVTVSS
As to B7, in test [16], the Emax, Cyno IL17A, HT-1080 bioassay came out at 100% and the IC50, Cyno IL17A, HT-1080 bioassay turned out to be 0.29 nM. In [17], this molecule showed an Emax, Cyno IL17F, HT-1080 bioassay of 87% and an IC50, Cyno IL17F, HT-1080 bioassay of 8.3 nM.

B8: IL17MS0154 (bispecific antibody, part only; not given: linkers and anti-albumin Nanobody, not shown: small tags and cut ends)
chain, part: EVQLVESGGGLVQAGGSLRLSCAASGRTFSSYVVGWFRQAPGKEREFIGAISGSGDSIYYAVSEKDRFTISRDNGKNTLYLQMSSLKAEDTAVYYCTADQEFGYLRFGRSEYWGQGTQVTVSSEVQLVESGGGLVQAGGSQRLSCTASGTIVNIHVMGWYRQAPGKQRELVALIFSGGSADYADSVKGRFTISRDNAKNTVYLEMNSLKAEDTAVYYCAAEIGYYSGGTYYSSEAHWGQGTQVTVSS
In turn, B8 yielded a koff in test [2] of 0.0057 s⁻¹. Also, the IC50 in test [3] worked out at 0.056 nM; in test [6], 0.047 nM.

Usually koff stands for the rate constant with which the complex falls apart. As a reminder, the IC50 is the midpoint of a concentration-inhibition curve.
